Laboratory results as given in patent US10913773B2, “Bicyclic peptidyl inhibitor of tumor necrosis factor-alpha” (Ohio State Innovation Foundation, priority 2016, dated 2021).
Where two headings read alike, the source gives them in different places. Starred links: 1 amine or outer side, 2 acyl side, 3 side chain; linkers in the order of their positions; H or OH if unused. Positions of bridges follow the written chain, without caps; N, C: chain ends. Non-standard residues stand in square brackets, D forms with d. Residues, ends and D or L forms follow the SMILES beside them. Groups on a side chain read outwards from the residue. Primed or numbered codes have the meaning given here. No end group written: not given here. *: point of attachment. Lys(5-FITC)NH2 = NC(=O)[C@H](CCCCNC(=S)Nc1ccc2c(c1)C(=O)OC21c2ccc(O)cc2Oc2cc(O)ccc21)N*; FITC(3) = fluorescein isothiocyanate (N6-fluorescein-thiocarbamoyl on Lys); FITC = O=C1OC2(c3ccc(O)cc3Oc3cc(O)ccc32)c2ccc(NC(=S)*)cc21; Trimesoyl = O=C(c1cc(C(=O)[*:2])cc(C(=O)[*:3])c1)[*:1]; trimesoyl″ = benzene-1,3,5-tricarbonyl scaffold; FITC′ = fluorescein isothiocyanate, on Lys NZ; Phg = N[C@H](C(=O)O)c1ccccc1; Nle = CCCC[C@H](N)C(=O)O; Dap = NC[C@H](N)C(=O)O; AEEA = NCCOCCOCC(=O)O; NHiPr = CC(C)N*

B1: Anticachexin C1 Tyr2 → Ala, NNNK(FITC)-tagged (peptide)
peptide: [Phg]A[dA]KY[dF]G[dK]H[Dap]NNNK(FITC′)-NH2
modifications: bridge (positions not given here) via trimesoyl″; not fully specified (N-terminus, bridges); also: feature: K4 labeled with FITC
B2: Anticachexin C1 Tyr5 → Ala, NNNK(FITC)-tagged (peptide)
peptide: [Phg]Y[dA]KA[dF]G[dK]H[Dap]NNNK(FITC′)-NH2
modifications: bridge (positions not given here) via trimesoyl″; not fully specified (N-terminus, bridges); also: feature: K4 labeled with FITC

What was measured:
[1] = target: T1, TNFα (Homo sapiens, UniProt P01375); assay: Fluorescence anisotropy (FA) binding of fluorescently labeled bicyclic peptides to TNFα; settings: for Kd: Table 5, residue 11 variants with Lys(FITC)
T1 construct: ybbR tag (13 aa) (N); made in house; host or cells: Escherichia coli
Procedure: FITC-labeled bicyclic peptide (50 or 100 nM) were incubated with varying concentrations of TNFα (0-5 μM) in 30 mM HEPES, pH 7.4, 150 mM NaCl, and 2 mM magnesium acetate for 2 h. The FA values were measured on a Molecular Devices Spectramax M5 spectrofluorimeter, with excitation and emission wavelengths at 485 and 525 nm, respectively. Equilibrium dissociation constants (KD) were determined by plotting the FA values as a function of TNFα concentration and fitting the data to the following equation
[formula] where Y is the measured anisotropy at a given TNFα concentration x; L is the bicyclic peptide concentration; Qb/Qf is the correction fact for dye-protein interaction; Amax is the maximum anisotropy when all the peptides are bound to TNFα, while Amin is the minimum anisotropy. Competition experiments were performed by incubating 100 nM Asn-Asn-Asn-Lys(FITC)-labeled anticachexin C1 (Table 1), 2 μM of TNFα, and varying concentrations of unlabeled competitor peptide (0-20 μM) in the above buffer for 2 h. The FA values were plotted against the competitor peptide concentration to determine the IC50 values.
To identify residues significant for TNFα binding, each residue of anticachexin C1 (other than D-alanine at position-3, L-lysine at position-4, and L-2,3-diaminopropionic acid (Dap) at position-10) was individually replaced with an alanine (or D-alanine). To facilitate binding analysis by fluorescence anisotropy (FA), a tetrapeptide NNNK (SEQ ID NO: 1) was added to the C-terminus of each bicyclic peptide and the lysine side chain was labeled with fluorescein isothiocyanate (FITC) during solid-phase synthesis (Scheme 1). The three asparagine residues were added to improve the aqueous solubility of the bicyclic peptides. The bicyclic peptide was prepared by first synthesizing the full-length linear sequence on Rink amide resin using standard Fmoc/HBTU chemistry. The side chains of the two internal cyclization residues, L-lysine and Dap, were protected with monomethoxytrityl (Mmt) groups, whereas the C-terminal lysine was protected with an allyloxycarbonyl (Alloc) group. After removal of the N-terminal Fmoc group, a trimesic acid was coupled to the N-terminal amine using HBTU as the coupling agent. Next, the Mmt groups were selectively removed from the Lys and Dap side chains by 2% TFA and the peptide was cyclized by treatment with (benzotriazol-1-yloxy)tripyrrolidinophosphonium hexafluorophosphate (PyBOP). The Alloc group on the C-terminal lysine side chain was removed by treatment with Pd(PPh3)4 and the bicyclic peptide was selectively labeled at the C-terminal lysine by treating the resin with FITC. […] On the other hand, phenylglycine (Phg)-1 and glycine-7 play more minor roles in binding.

[2] = target: T2, Recombinant TNFα containing an N-terminal 13-aa ybbR tag (human, UniProt P01375 77-233, biotin at the ybbR tag in the ELISA assays); assay: FA, FITC-peptide + TNFα titration
T2 construct: Expressed in E. coli; Same construct used unlabelled (FA) and biotinylated on NeutrAvidin (ELISA); also called tumor necrosis factor-alpha; human TNFα; not shown: N-terminal 13-aa ybbR tag
T2 sequence (P01375 77-233): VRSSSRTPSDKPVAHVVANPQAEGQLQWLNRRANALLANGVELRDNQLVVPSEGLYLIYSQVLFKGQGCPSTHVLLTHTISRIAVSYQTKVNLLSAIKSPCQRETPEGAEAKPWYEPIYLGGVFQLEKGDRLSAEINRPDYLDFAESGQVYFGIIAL
Procedure: (§1) The FA values were measured on a Molecular Devices Spectramax M5 spectrofluorimeter, with excitation and emission wavelengths at 485 and 525 nm, respectively. Equilibrium dissociation constants (KD) were determined by plotting the FA values as a function of TNFα concentration and fitting the data to the following equation $$Y = \frac{\left(Amin + \left(Amax \times \frac{Q_b}{Q_f} - Amin\right)\left(\frac{(L+x+K_d) - \sqrt{((L+x+K_d)^2 - 4Lx)}}{2L}\right)\right)}{\left(1 + \left(\frac{Q_b}{Q_f} - 1\right)\left(\frac{(L+x+K_d) - \sqrt{((L+x+K_d)^2 - 4Lx)}}{2L}\right)\right)}$$
(§2) where Y is the measured anisotropy at a given TNFα concentration x; L is the bicyclic peptide concentration; Qb/Qf is the correction fact for dye-protein interaction; Amax is the maximum anisotropy when all the peptides are bound to TNFα, while $Amin$ is the minimum anisotropy. […] The FA values were plotted against the competitor peptide concentration to determine the IC$50$ values.

[3] = target: T2, Recombinant TNFα containing an …; assay: FA; against C1
Procedure: as §1, §2

[4] = target: T2, Recombinant TNFα containing an …; assay: FA, FITC-peptide + TNFα titration; remark: listed apart in the source
Procedure: as §1, §2

Molecule | Fold of Affinity Reduction [3] | Kd [4] | also measured
CCCC[C@@H]1NC(=O)c2cc3cc(c2)C(=O)NC[C@@H](C(=O)N[C@@H](CC(=O)NCCOCCOCC(=O)N[C@@H](CCCCNC(=S)Nc2ccc4c(c2)C(=O)OC42c4ccc(O)cc4Oc4cc(O)ccc42)C(N)=O)C(=O)NC(C)C)NC(=O)[C@H](Cc2c[nH]cn2)NC(=O)[C@@H](CCCCN)NC(=O)CNC(=O)[C@@H](Cc2c[nH]cn2)NC(=O)[C@H](Cc2c[nH]c4ccccc24)NC(=O)[C@H](CCCCNC3=O)NC(=O)[C@@H](CO)NC(=O)[C@H](Cc2ccc(O)cc2)NC1=O [Compound C1-61] ([Nle]Y[dS]KW[dH]G[dK]H[Dap]D([AEEA-Lys(5-FITC)NH2])-NHiPr; linker N-4-10 via Trimesoyl) | – | – | Kd [1]: 420 ± 210 nM
CCCC[C@@H]1NC(=O)c2cc3cc(c2)C(=O)NC[C@@H](C(=O)N[C@@H](CCCCNC(=S)Nc2ccc4c(c2)C(=O)OC42c4ccc(O)cc4Oc4cc(O)ccc42)C(N)=O)NC(=O)[C@H](Cc2c[nH]cn2)NC(=O)[C@@H](CCCCN)NC(=O)CNC(=O)[C@@H](Cc2ccccc2)NC(=O)[C@H](Cc2ccc(O)cc2)NC(=O)[C@H](CCCCNC3=O)NC(=O)[C@@H](C)NC(=O)[C@H](Cc2ccc(O)cc2)NC1=O [Compound C1-5] | – | – | Increase of TNFα binding affinity (fold) ([1]; relative to comparator analogue named in text): ~2 fold
CCCC[C@@H]1NC(=O)c2cc3cc(c2)C(=O)NC[C@@H](C(=O)N[C@@H](CC(=O)NCCOCCOCC(=O)N[C@@H](CCCCNC(=S)Nc2ccc4c(c2)C(=O)OC42c4ccc(O)cc4Oc4cc(O)ccc42)C(N)=O)C(=O)NCC)NC(=O)[C@H](Cc2c[nH]cn2)NC(=O)[C@@H](CCCCN)NC(=O)CNC(=O)[C@@H](Cc2c[nH]cn2)NC(=O)[C@H](Cc2c[nH]c4ccccc24)NC(=O)[C@H](CCCCNC3=O)NC(=O)[C@@H](CO)NC(=O)[C@H](Cc2ccc(O)cc2)NC1=O [Compound C1-60] ([Nle]Y[dS]KW[dH]G[dK]H[Dap]D([AEEA-Lys(5-FITC)NH2])-NHEt; linker N-4-10 via Trimesoyl) | – | – | Kd [1]: 380 ± 140 nM
CCCC[C@@H]1NC(=O)c2cc3cc(c2)C(=O)NC[C@@H](C(=O)N[C@H]2CCC[C@@H]2C(=O)NCCOCCOCC(=O)N[C@@H](CCCCNC(=S)Nc2ccc4c(c2)C(=O)OC42c4ccc(O)cc4Oc4cc(O)ccc42)C(N)=O)NC(=O)[C@H](Cc2c[nH]cn2)NC(=O)[C@@H](CCCCN)NC(=O)CNC(=O)[C@@H](Cc2c[nH]cn2)NC(=O)[C@H](Cc2c[nH]c4ccccc24)NC(=O)[C@H](CCCCNC3=O)NC(=O)[C@@H](CO)NC(=O)[C@H](Cc2ccc(O)cc2)NC1=O [Compound C1-63] | – | – | Kd [1]: 160 ± 150 nM
CCCC[C@@H]1NC(=O)c2cc3cc(c2)C(=O)NC[C@@H](C(=O)N[C@@H](CCCCNC(=S)Nc2ccc4c(c2)C(=O)OC42c4ccc(O)cc4Oc4cc(O)ccc42)C(N)=O)NC(=O)[C@H](Cc2ccccc2)NC(=O)[C@@H](CCCCN)NC(=O)CNC(=O)[C@@H](Cc2c[nH]cn2)NC(=O)[C@H](Cc2c[nH]c4ccccc24)NC(=O)[C@H](CCCCNC3=O)NC(=O)[C@@H](CO)NC(=O)[C@H](Cc2ccc(O)cc2)NC1=O [Compound C1-50] ([Nle]Y[dS]KW[dH]G[dK]F[Dap]K(FITC)-NH2; linker N-4-10 via Trimesoyl) | – | – | Reduction of TNFα binding affinity (fold) ([1]; His-9 replaced with Phe, relative to parent): ~30 fold
CCCC[C@@H]1NC(=O)c2cc3cc(c2)C(=O)NC[C@@H](C(=O)N2CCC[C@@H](C(=O)NCCOCCOCC(=O)N[C@@H](CCCCNC(=S)Nc4ccc5c(c4)C(=O)OC54c5ccc(O)cc5Oc5cc(O)ccc54)C(N)=O)C2)NC(=O)[C@H](Cc2c[nH]cn2)NC(=O)[C@@H](CCCCN)NC(=O)CNC(=O)[C@@H](Cc2c[nH]cn2)NC(=O)[C@H](Cc2c[nH]c4ccccc24)NC(=O)[C@H](CCCCNC3=O)NC(=O)[C@@H](CO)NC(=O)[C@H](Cc2ccc(O)cc2)NC1=O [Compound C1-64] | – | – | Kd [1]: 340 ± 230 nM
CCCC[C@@H]1NC(=O)c2cc3cc(c2)C(=O)NC[C@@H](C(=O)Nc2cn(C)cc2C(=O)NCCOCCOCC(=O)N[C@@H](CCCCNC(=S)Nc2ccc4c(c2)C(=O)OC42c4ccc(O)cc4Oc4cc(O)ccc42)C(N)=O)NC(=O)[C@H](Cc2c[nH]cn2)NC(=O)[C@@H](CCCCN)NC(=O)CNC(=O)[C@@H](Cc2c[nH]cn2)NC(=O)[C@H](Cc2c[nH]c4ccccc24)NC(=O)[C@H](CCCCNC3=O)NC(=O)[C@@H](CO)NC(=O)[C@H](Cc2ccc(O)cc2)NC1=O [Compound C1-65] | – | – | Kd [1]: 1900 ± 900 nM
[Nle]Y[dS]KW[dH]G[dK]H[Dap]F[AEEA]K(FITC)-NH2 (linker N-4-10 via trimesoyl″, C1-35 core with R11 as printed) [C1-55] | – | – | Kd [2]: 1000 nM
[Nle]Y[dS]KW[dH]G[dK]H[Dap]I[AEEA]K(FITC)-NH2 (linker N-4-10 via trimesoyl″, C1-35 core with R11 as printed) [C1-57] | – | – | Kd [2]: 510 nM
[Nle]Y[dS]KW[dH]G[dK]H[Dap][AEEA]K(FITC)-NH2 (linker N-4-10 via trimesoyl″, C1-35 core with R11 as printed) [C1-54] | – | – | Kd [2]: 5100 nM
[Nle]Y[dS]KW[dH]G[dK]H[Dap]DK(FITC)-NH2 (linker (positions not given here) via trimesoyl″; not fully specified (bridges), C1-35 core with R11 as printed) [C1-51] | – | – | Kd [2]: 3500 nM
AY[dA]KY[dF]G[dK]H[Dap]NNNK(FITC(3))-NH2 (linker N-4-10 via trimesoyl″) [Anticachexin C1 Phg1 → Ala, NNNK(FITC)-tagged] | 1.2 fold | 1000 nM | –
[Phg]Y[dA]KY[dF]G[dA]H[Dap]NNNK(FITC(3))-NH2 (linker N-4-10 via trimesoyl″) [Anticachexin C1 D-Lys8 → D-Ala, NNNK(FITC)-tagged] | 7 fold | 5900 nM | –
[Phg]Y[dA]KY[dF]A[dK]H[Dap]NNNK(FITC(3))-NH2 (linker N-4-10 via trimesoyl″) [Anticachexin C1 Gly7 → Ala, NNNK(FITC)-tagged] | 1.5 fold | 1200 nM | –
B1 | 14 fold | 13000 nM | –
[Phg]Y[dA]KY[dA]G[dK]H[Dap]NNNK(FITC(3))-NH2 (linker N-4-10 via trimesoyl″) [Anticachexin C1 D-Phe6 → D-Ala, NNNK(FITC)-tagged] | 4 fold | 3400 nM | –
B2 | 12 fold | 11000 nM | –
[Phg]Y[dA]KY[dF]G[dK]A[Dap]NNNK(FITC(3))-NH2 (linker N-4-10 via trimesoyl″) [Anticachexin C1 His9 → Ala, NNNK(FITC)-tagged] | 5 fold | 4400 nM | –
